Experimental data published in IntAct's records for PubMed 15678106.

B1: Tumor protein p73 (Homo sapiens), O15350-1 (parent)
chain: MAQSTATSPDGGTTFEHLWSSLEPDSTYFDLPQSSRGNNEVVGGTDSSMDVFHLEGMTTSVMAQFNLLSSTMDQMSSRAASASPYTPEHAASVPTHSPYAQPSSTFDTMSPAPVIPSNTDYPGPHHFEVTFQQSSTAKSATWTYSPLLKKLYCQIAKTCPIQIKVSTPPPPGTAIRAMPVYKKAEHVTDVVKRCPNHELGRDFNEGQSAPASHLIRVEGNNLSQYVDDPVTGRQSVVVPYEPPQVGTEFTTILYNFMCNSSCVGGMNRRPILIIITLEMRDGQVLGRRSFEGRICACPGRDRKADEDHYREQQALNESSAKNGAASKRAFKQSPPAVPALGAGVKKRRHGDEDTYYLQVRGRENFEILMKLKESLELMELVPQPLVDSYRQQQQLLQRPSHLQPPSYGPVLSPMNKVHGGMNKLPSVNQLVGQPPPHSSAATPNLGPVGPGMLNNHGHAVPANGEMSSSHSAQSMVSGSHCTPPPPYHADPSLVSFLTGLGCPNCIEYFTSQGLQSIYHLQNLTIEDLGALKIPEQYRMTIWRGLQDLKQGHDYSTAQQLLRSSNAATISIGGSGELQRQRVMEAVHFRVRHTITIPNRGGPGGGPDEWADFGFDLPDCKARKQPIKEEFTEAEIH

Variants of: B1
Details: with itch_human ITCH

Row | effect of a mutation on the interaction | Variant
1 | disrupting interaction | Y487F
